Assay results taken from article PMC9918532.

What was measured:
[1] = immunoblot of endogenous YTHDF2, hepatoma cells; conditions: control: untreated / control shRNA
[2] = nuclear/cytosolic fractionation and immunofluorescence
[3] = HA-Ub in-cell ubiquitination, anti-HA and anti-K48 blot; conditions: glycan lost; control: untreated / control shRNA
[4] = CHX chase, Flag-YTHDF2 in HepG2-HBV1.3; conditions: glycan lost; control: control shRNA
[5] = CHX chase, endogenous YTHDF2 in HepAD38; conditions: glycan lost; control: control shRNA
[6] = HA-Ub in-cell ubiquitination, Flag IP, MG132; conditions: glycan lost; control: YTHDF2-WT
[7] = CHX chase, HepG2-HBV1.3-shYTHDF2, anti-Flag blot; conditions: glycan lost; control: YTHDF2-WT
[8] = actinomycin D chase, RT-qPCR, HepG2-HBV1.3-shYTHDF2; conditions: glycan lost; control: YTHDF2-WT
[9] = in vitro ubiquitination with His-OGT and UDP-GlcNAc; conditions: glycan lost; control: YTHDF2-WT
[10] = CHX chase, HepG2-HBV1.3-shYTHDF2; conditions: glycan gained; control: untreated Flag-YTHDF2-WT

B1: YTHDF2: OSMI-1 (protein)
parent chain: MSASSLLEQRPKGQGNKVQNGSVHQKDGLNDDDFEPYLSPQARPNNAYTAMSDSYLPSYYSPSIGFSYSLGEAAWSTGGDTAMPYLTSYGQLSNGEPHFLPDAMFGQPGALGSTPFLGQHGFNFFPSGIDFSAWGNNSSQGQSTQSSGYSSNYAYAPSSLGGAMIDGQSAFANETLNKAPGMNTIDQGMAALKLGSTEVASNVPKVVGSAVGSGSITSNIVASNSLPPATIAPPKPASWADIASKPAKQQPKLKTKNGIAGSSLPPPPIKHNMDIGTWDNKGPVAKAPSQALVQNIGQPTQGSPQPVGQQANNSPPVAQASVGQQTQPLPPPPPQPAQLSVQQQAAQPTRWVAPRNRGSGFGHNGVDGNGVGQSQAGSGSTPSEPHPVLEKLRSINNYNPKDFDWNLKHGRVFIIKSYSEDDIHRSIKYNIWCSTEHGNKRLDAAYRSMNGKGPVYLLFSVNGSGHFCGVAEMKSAVDYNTCAGVWSQDKWKGRFDVRWIFVKDVPNSQLRHIRLENNENKPVTNSRDTQEVPLEKAKQVLKIIASYKHTTSIFDDFSHYEKRQEEEESVKKERQGRGK
[1]; glycan lost
  expression_or_secretion: decreases
[2]; glycan lost, control: untreated
  localisation_or_trafficking: no change
[3]
  other: ubiquitination: increases

B2: YTHDF2: OGT knockdown (protein)
parent chain: B1 parent chain
[1]; glycan lost
  expression_or_secretion: decreases

B3: YTHDF2: shOGT (protein)
parent chain: B1 parent chain
[4]
  degradation_or_half_life: decreases
[5]
  degradation_or_half_life: decreases
[3]
  other: ubiquitination: increases

B4: YTHDF2: S263A (protein)
parent chain: B1 parent chain
[6]
  other: ubiquitination: increases
[7]
  degradation_or_half_life: decreases
[8]
  other: stabilisation of target mRNA: decreases
[9]
  other: ubiquitination: increases
[2]; glycan lost, control: YTHDF2-WT
  localisation_or_trafficking: no change

B5: YTHDF2: TMG (protein)
parent chain: B1 parent chain
[10]
  degradation_or_half_life: increases
[1]; glycan gained
  expression_or_secretion: increases
[2]; glycan gained, control: untreated
  localisation_or_trafficking: no change
